In the supplement of paper PMC9170038:

Tested on: MS2 coat protein
Assay: apparent KD of MS2 coat protein; designed switch direction (-1 OFF switch, 1 ON switch): -1; higher = weaker reporter binding
How it was run: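 For each design, the apparent KD is the median over clusters of curves fitted to normalised cluster fluorescence. Clusters held RNA switches with common flanks, transcribed on Illumina chips by stalled E. coli RNA polymerase. These were titrated with SNAP-549-labelled MS2 coat protein, doubling from 0.7 or 1.5 nM to 3 µM, without input, with 200 uM small-molecule ligand, or with an oligonucleotide input.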

[1] = Eterna round: R95, input ligand: microRNA oligo, concentration not stated
[2] = input ligand: microRNA oligo, concentration not stated
[3] = Eterna round: R95, input ligand: FMN 200 uM
[4] = Eterna round: R95, input ligand: none

Sequence | apparent KD of MS2 coat protein (input ligand: FMN 200 uM) | apparent KD of MS2 coat protein (input ligand: none) | apparent KD of MS2 coat protein [1] | apparent KD of MS2 coat protein [2] | apparent KD of MS2 coat protein [3] | apparent KD of MS2 coat protein [4]
UGCCAGAAAGGAUAUACAUGAGGAUCACCCAUGUAACCCUAUGUGAGAGUUCCCGUUUGUAGAAGGUUCUCGUA [EX3 C.22] (Eterna round: R97, puzzle: Exclusion 3) | 21.3 nM | 18.2 nM | – | – | – | –
CCGAAAUCCUAGGAUAUGCUAGACGAAAGUCUAGCAGAAGGAGGAACAUGAGGAUCACCCAUGUGUCCUAUCGG [Mat - Exclusion 6 - Eli Mod - D30] (Eterna round: R97, puzzle: Exclusion 6) | 23.1 nM | 15.8 nM | – | – | – | –
AUAUUGUGAGGAUAUGUACUUAGUAUCGAAAGAUACUAAGUUCAGAAGGCACAUGAGGAUCACCCAUGUUUCUC [Long static hairpin v13] (Eterna round: R97, puzzle: Exclusion 4) | 805 nM | 63.5 nM | – | – | – | –
CCAGCGAGUGUGAGGAUAUGCUGGUCCUUGGAUCAGCAGAAGGCACAUGAGGAUCACCCAUGUGAAAACGUUGG [JL bmx4 3.30] (puzzle: Brourd's mod of Exclusion 4) | – | – | 21.8 nM | – | – | –
UGAAACCUAGGAUAUACAUGAGGAUCACCCAUGUAAUGUAGUAUAGUAUAUGUAAGAUGUAGAAGGAGGAAAGU [LRO-Excl05-27-Smart Aleck] (Eterna round: R97, puzzle: Exclusion 3) | 26.3 nM | 37.7 nM | – | – | – | –
UGCAUGUAAGGAUAUGCAACCUGCGCUCAUUAGCAGGUCAAGCAGAAGGUACAUGAGGAUCACCCAUGUGUCCG [Tebisoma] (Eterna round: R96, puzzle: Exclusion 4) | 462 nM | 31.6 nM | – | 25.2 nM | – | –
CGGGAGGAAGGAUAUACACGGCCUCCUAGAAUAAAUCCUGGACAUGAGGAUCACCCAUGUAGAAGGUCCACCGA [Tiuslala] (puzzle: Exclusion 2) | – | – | 17.3 nM | – | – | –
UUUGGUGUAGGAUAUACAUGAGGAUCACCCAUGUGCUCCUGCGAGUUCGAAUCCAAAGGUAGAAGGGCGCUAAU [Eternabot (L2) Solution 83] (Eterna round: R97, puzzle: Exclusion 3) | 23.3 nM | 21.2 nM | – | – | – | –
GAUGAGGUAGGAUAUACGAGAAGAUAGGGUAGAUAUAUAACACAUGAGGAUCACCCAUGUAGAAGGACCAGUAG [Mat - Exclusion 2 - Mod of my Tesla design - D71] (puzzle: Exclusion 2) | – | – | 36.4 nM | – | 65.1 nM | 31.7 nM
AGCUGUGGCCGAGGAUAUCCAGCCUUAAAUACCGACGUAUAGUCGGACAUGAGGAUCACCCAUGUGGAGAAGGCGGUCUCAGCA [Eli eng2 - 045] (Eterna round: R96, puzzle: Exclusion NG 2) | 126 nM | 43.6 nM | – | 36.4 nM | – | –
UUUAAUUGUGACAUGGGUGACAUGAGGAUCACCCAUGUCACAAGCUUUUUGCUCGUCUUAUAAUUAACCCAUGUCAC [Stov1/13-A1] (Eterna round: R97, puzzle: Sensor, turn-off variant 1) | 25.6 nM | 27.7 nM | – | – | – | –
AGUAGUAGUAUCCGAUCCUACAUGAGGAUCACCCAUGUUGCUAGACGUGCACGCGAUGCUCGUCAGACUACCAGAUG [salish99_TOv1_r3_050] (puzzle: Sensor v3, turn-off variant 1) | – | – | 150 nM | – | 326 nM | 157 nM
GAUUCAUAUGACUUUCUAUACAUGAGGAUCACCCAUGUUUGUUUUUUUUGUUUUUCGCUUUUUAGUCGUCUUAUUAU [Gravy 3] (Eterna round: R97, puzzle: Sensor, turn-off variant 1) | 19.6 nM | 19 nM | – | – | – | –
GGUACUAUCACCUGAGUGGUAGUGCAAUAAGCUUGUGAUACAUGAGGAUCACCCAUGUCCUCAUUUGCUCGUCUUAU [JL-sv3-2.26 JL mod] (puzzle: Sensor v3, turn-off variant 2) | – | – | 516 nM | – | 533 nM | 839 nM
AAAUGAGAGCAGGAUAUCUUAUAAAUGUAUGAAAGAGAAGGGCUCACAUGAGGAUCACCCAUGUGGUCCUAGAU [jl-ex6-4.77 jandersonlee mod] (Eterna round: R97, puzzle: Exclusion 6) | 673 nM | 32.7 nM | – | – | – | –
GUCAUCAAACAUGGGAUCAACAUGAGGAUCACCCAUGUUGUCAAGUUUUUUGCUCGUCUUAUAAUACGUUUGAUGAC [Mod-Jxb] (Eterna round: R97, puzzle: Sensor, turn-off variant 1) | 16 nM | 16.4 nM | – | – | – | –
AGUUGGCGAGGAUAUACAUGAGGAUCACCCAUGUGAGAGAUACUAGUGAGGUCGGUUAGUAGAAGGCGCUGACA [Mat X3R4 m16] (Eterna round: R97, puzzle: Exclusion 3) | 344 nM | 35.5 nM | – | – | – | –
UAAUACAAGUAGAGAUUCUACAUGAGGAUCACCCAUGUGCUCGUCUUAUAAAGUACUAUCACGAAAGUGAUAGUACA [Mat - Sensor v3 - turn-off var 1 - Eli Mod - D97] (puzzle: Sensor v3, turn-off variant 1) | – | – | 322 nM | – | 23 nM | 19.7 nM
UCUUACUGAGGAUAUACAUAGAUUUACAUGAGGAUCACCCAUGUUCCUCUAAGUAUAUAUGUAGAAGGCAGAAGAU [Mat - Exclusion 5 - JL Mod - D44] (Eterna round: R97, puzzle: Exclusion 5) | 329 nM | 235 nM | – | – | – | –
GUCACAUGGGUGUAGAAUCACAUGAGGAUCACCCAUGUGACUAACAAGCUUUUUGCUCGUCUUAUGUCUAUGUGAAA [Stov1/17-A1] (Eterna round: R97, puzzle: Sensor, turn-off variant 1) | 47.4 nM | 40.5 nM | – | – | – | –
GCGUUCUGAGGAUAUACAUGAGGAUCACCCAUGUUGAGAAUUAGGUAUAAGGGAUUUUGUAGAAGGCAGAGUGC [JR_Ex3_Sub072] (Eterna round: R97, puzzle: Exclusion 3) | 228 nM | 59.9 nM | – | – | – | –
UGAUCUUUUGUUAGGAUAUGCUGGCUGAAAAGUCAGCAGAAGGGACAUGAGGAUCACCCAUGUUCUCUCUUUUU [Magic-09] (puzzle: Brourd's mod of Exclusion 4) | – | – | 10.3 nM | – | – | –
ACACAAAGCUAGGAUAUCGAGGCAUCUUCGGCCCGAGAAGGAGCCACAUGAGGAUCACCCAUGUGGUGAUCCUG [eternacac ex6r4 sub4] (Eterna round: R97, puzzle: Exclusion 6) | 100 nM | 121 nM | – | – | – | –
CGGCAUGUCUGAGGAUAUCUGCACGAUUAGUGCAGAGAAGGCAGAACAUGAGGAUCACCCAUGUAGAUCAUUAACCGAUUAAUU [ENG1/7-A1] (Eterna round: R96, puzzle: Exclusion NG 1) | 275 nM | 194 nM | – | 127 nM | – | –
GCACGGAUGGUAGGAUAUCAUUGCGAUUAGCUAUGAGAAGGGCCACAUGAGGAUCACCCAUGUCCUCUAAUUAGCCUUCCGUGC [Eli exng1 - 018] (Eterna round: R96, puzzle: Exclusion NG 1) | – | – | – | 82.3 nM | – | –
